Assay results taken from patent publication US8357523B2, “Beta-glucosidase variant enzymes and related polynucleotides” (Codexis, Inc., priority 2009, dated 2013).

Columns and labels:
Type in all cases: biochemical
[1] = Saccharification of microcrystalline cellulose by Trichoderma reesei whole cellulase supplemented with β-glucosidase; conditions: 1 g/L TRWC alone or 25% of TRWC substituted with the β-glucosidase; 200 g/L Avicel, 100 g/L xylose, pH5.5, 55° C., 48 hours
From the text: FIG. 12 illustrates the impact of supplementing a commercially available Trichoderma reesei whole cellulose (“TRWC”) mixture with a CelA variant of the present invention. Compositions containing TRWC were supplemented with β-glucosdiases CelA Variant No. 264 (“Cel var1”), CelA Variant No. 366 (“Cel var2”), and a commercially available Aspergillus niger β-glucosidase (“ANBG”) in a ratio of 3:1 TRWC to β-glucosidase. The effectiveness of each composition at hydrolyzing microcrystalline cellulose was evaluated as described in Example 15. A plot of glucose and cellobiose concentration (g/L) vs. cellulase composition is depicted. The control composition was TRWC with no added β-glucosidase.
The impact of adding a CelA variant of the present invention to commercially available cellulose mixtures and microcrystalline cellulose, Avicel™, was evaluated. In the test reactions, 1 g/L Trichoderma reesei whole cellulose (“TRWC”, Sigma catalog #C85456-10KU (ATCC 26921)) was used to convert 200 g/L of the microcrystalline cellulose Avicel™ (200 mM Sodium acetate; 100 g/L xylose, pH5.5 and 55° C.). The amount of glucose was measured after 48 hours of reaction. As a comparison, 25% of the TRWC was replaced with a β-glucosidase: Variant No. 264 (“Cel var1”), Variant No. 366 (“Cel var2”), or with the commercially available cellobiase, Aspergillus niger beta-glucosidase (“ANBG”, Sigma catalog #49291-1G). […]

[2] = Activity profile at different temperatures and pH using cellobiose (10 g/L) as substrate
Description: β-glucosidase activity was also determined using a cellobiose assay, which used cellobiose as substrate. In a total volume of 100 μL, 25 μL clear media supernatant containing CelA enzyme was added to 10 g/L cellobiose (Fluka Cat. No. 22150, Sigma-Aldrich, Inc., St. Louis, Mo.) in 100 mM sodium phosphate buffer (pH 6-7) or sodium acetate buffer (pH 5-5.5). The reaction was incubated at 45-70° C. for an appropriate time (25 minutes to overnight depending on the enzyme concentration) while shaking. Glucose production was determined using an enzymatic glucose assay (K-GLUC, Megazyme, Ireland). 10 μl of each reaction was added to 190 μl GOPOD reagent (supplied as part of the K-GLUC assay kit). The reaction was incubated at 45° C. for 20 minutes and the absorbance of the solution was measured at 510 nm. The GOPOD reagent contains 50 mM Potassium phosphate buffer pH7.4, 0.011M p-hydroxybenzoic acid, 0.008% w/v sodium azide, glucose oxidase (>12,000 U/L), peroxidase (>650 U/L) and 80 mg/L 4-aminoantipyrine. The glucose oxidase enzyme in the reagent reacts with any glucose present in the sample and produces hydrogen peroxide which then reacts with the 4-aminoantipyrine to produce a quinoneimine dye in quantities proportionate with the amount of glucose present and can be measured spectrophotometrically at 510 nm. Detectable β-glucosidase activity was observed under high throughput screening conditions (i.e., pH 7, 50° C.).
The native CelA activity profile was investigated at different temperatures (40-55° C.) and pH (5.0-8.0) using cellobiose (10 g/L) as a substrate. The experimental and analytical procedures are described in Example 5.
The activity profiles for Variant Nos. 264, 366, 391, 463, and 529 were determined at different temperatures and pH using cellobiose (10 g/L) as a substrate. The experimental and analytical procedures are described in Example 5, incubating the variant with cellobiose at temperatures in the range of 45-80. The results are depicted in FIGS. 7-11. […] The temperature and pH profile for this variant is depicted in FIG. 7. […] The temperature and pH profile for this variant is depicted in FIG. 8. […] The temperature and pH profile for this variant is depicted in FIG. 9. […] (with the pH 6 optimum determined by extrapolation). The temperature and pH profile for this variant is depicted in FIG. 10. […] The temperature and pH profile for this variant is depicted in FIG. 11.

[3] = High throughput cellobiose assay: fold improvement in cellobiase activity of CelA variants over a control enzyme (Tables 2A-2D, 3, 5, 6, 7); conditions: assay of Example 7

B1: Variant No. 264 (protein)
chain: SAAIAQEGAAPAAMLHPEKWPRPATQRLIDPAVEKRVDALLKQLSVEEKVGQVIQGDIGTITPEDLRKYPLGSILAGGDSGPNGDDRAPPKEWLDLADAFYRVSLEKRPGHTPIPVLFGIDAVHGHGNIGSATIFPHNIALGMTRDPELLRRIGEVTAEEMAATGIDWTFAPALSVVRDDRWGRTYEGFSEDPEIVASYSAAIVEGVQGKYGSKDFMAPGRAVACAKHFLADGGTDQGRDQGDARISEDELIRIHNAGYPPAIDAGVLTVMASFSSWQGIKHHGHKQLLTDVLKGQMGFNGFIVGDWNAHDQVPGCTKFNCPTSLIAGLDMYMAADSWKQLYENTLAQVKDGTIPMARLDDAVRRILRVKVLAGLFEKPAPKDRPGLPGLETLGSPEHRAVGREAVRKSLVLLKNDKGTLPLSPKARVLVAGDGADNIGKQSGGWTISWQGTGNRNDEFPGATSILGGIRDAVADAGGSVEFDVAGQYKTKPDVAIVVFGEEPYAEFRGDVETLEYQPDQKQDLTLLKKLKDQGIPVVAVFLSGRPMWVNPELNASDAFVAAWLPGTEGGGVADVLFTDKAGKVQHDFAGKLSYSWPRTAAQTTVNRGDADYNPLFAYGYGLTYKDKSKVGTLPEESGVPAEARQN
Which “cellobiose and glucose combined yielded in saccharification reaction” value [1] does the source give for B1 here?
The value was “comparable results”.

What about the “pH of optimum activity” value [2] of the same molecule?
Its value is 6 pH.

And the “temperature of optimum activity” value [2]?
Its value is 58 °C.

What about the “activity (e.g., thermoactivity) over the wildtype A. irakense β-glucosidase” value [3] of the same molecule?
Its value is “improved activity”.
